{"source": "paper PMC6983858", "key": {"[1]": {"molecular_target": "full-length human neurofibromin (His6-tev-NF1, 2–2818) (human) (UniProt P21359)", "experiment": "SAXS + SANS; full-length neurofibromin in solution, SAXS at 0.5 and 1.0 mg/ml, SANS at 1 mg/ml, 20 °C; molar mass from scattering"}, "[2]": {"molecular_target": "full-length human neurofibromin (His6-tev-NF1, 2–2818) (human) (UniProt P21359)", "experiment": "SEC-MALS; single purified proteins; Superose-6 Increase or Superdex S-200 10/300 GL, Wyatt Heleos and Optilab T-Rex; BSA as standard"}, "[3]": {"molecular_target": "full-length human neurofibromin (His6-tev-NF1, 2–2818) (human) (UniProt P21359)", "experiment": "AUC; sedimentation velocity and equilibrium of full-length neurofibromin, 1.2 μM to 25 nM, 20 °C, 20 mM HEPES pH 7.4, 300 mM NaCl, 1 mM TCEP; dimer to monomers"}}, "data": [{"substance": "full-length human neurofibromin (His6-tev-NF1, 2–2818), P21359-2 2-2818", "values": [{"measurement": "stoichiometry N", "setting": "[1]", "result": 2}, {"measurement": "stoichiometry N", "setting": "[2]", "result": 2}, {"measurement": "Kd", "setting": "[3]", "result": "< 1", "unit": "nM"}]}]}
